13 molecules from article PMC13100509, “A milestone in C4 carbon concentration mechanism evolution: structural remodeling of NADP-malic enzyme in Poaceae” (Molecular Biology and Evolution, 2026) can be followed below.

Data set [1] addresses C4 + 15 variant of maize C4-NADP-ME (maize (Zea mays)) (UniProt P16243). Briefly: native gel or EMSA; native PAGE (6% or 7%) of purified recombinant proteins, 100 V, 4 °C; Coomassie staining or in-gel NADP-ME activity assay; oligomeric state from mobility against native markers. On the technique in general: In EMSA bound probe runs differently from free probe, usually more slowly.

Data set [2] concerns the target nonC4R171T mutant of maize nonC4-NADP-ME (maize (Zea mays)). The data set is described as above.
In data set [3] the target is maize Cyt2-NADP-ME, recombinant wild type (maize (Zea mays)). The data set is described as above.
Data set [4] deals with nonC4Δ15 variant of maize nonC4-NADP-ME (maize (Zea mays)). The data set is described as above.
Data set [5] addresses plastidic nonC4-NADP-ME from maize extracts (maize (endogenous in maize etiolated leaves and roots)). Briefly: native gel or EMSA; native PAGE (7%) of maize extracts of etiolated leaves and roots; in-gel NADP-ME activity assay, active bands excised and identified by mass spectrometry; mobility compared with the recombinant proteins.
Data set [6] concerns the molecule itself. Briefly: native gel or EMSA; native PAGE (6% or 7%) of purified recombinant proteins, 100 V, 4 °C; Coomassie staining or in-gel NADP-ME activity assay; oligomeric state from mobility against native markers.
Substrate in data set [7]: O=C(O)C[C@H](O)C(=O)O
Briefly: purified protein. The note with it: pH 8.0, 25 °C, 0.5 mM NADP, 10 mM MgCl2. Type of data set: biochemical, Zea mays.

Values joined by “and” are separate entries in the source; they are usually repeats but may differ in a detail not shown here. Identical values can stand only once.

Consider “C4 + 15 variant of maize C4-NADP-ME (from UniProt P16243 63-636) (enzyme)”, for which, in data set [1], the stoichiometry N (as a rule, the number of molecules, sites or subunits per partner or assembly) came to 4.
Consider “nonC4R171T mutant of maize nonC4-NADP-ME (enzyme)”, for which, in data set [2], the stoichiometry N was 2 and 4.
Turning to “maize Cyt2-NADP-ME, recombinant wild type (enzyme)”, the stoichiometry N in data set [3] came to 4.
Consider “nonC4Δ15 variant of maize nonC4-NADP-ME (enzyme)”, for which the stoichiometry N in data set [4] worked out at 2.
Turning to “plastidic nonC4-NADP-ME from maize extracts (enzyme)”, in data set [5], the stoichiometry N is 2.

B1: C4T163R mutant of maize C4-NADP-ME (enzyme, maize (Zea mays), UniProt P16243 63-636, looked up)
chain: MVSNAETETEKEQEEAAAASEELPVMPWATSVASGYTLLRDPHHNKGLAFTEEERDGHYLRGLLPPAVLSQELQIKKFMNTLRQYQTPLQRYIAMMNLQERDERLFYKLLIDNVVELLPFVYTPTVGEACQKYGSIFGRPQGLYVSLKDKGKVLEVLRNWPHRNIQVICVTDGERILGLGDLGCQGMGIPVGKLALYTALGGVDPSVCLPITIDVGTNNEFLLNDEFYIGLRQKRATGEEYDELIEEFMSAVKQFYGEKVLIQFEDFANHNAFDLLEKYSKSHLVFNDDIQGTASVVLAGLLAALKMVGGTLAEQTYLFLGAGEAGTGIAELIALEISKQTNAPIEECRKKVWLVDSKGLIVDSRKGSLQPFKKPWAHEHEPLKTLYDAVQSIKPTVLIGTSGVGRTFTKEIIEAMSSFNERPIIFSLSNPTSHSECTAEQAYTWSQGRSIFASGSPFAPVEYEGKTFVPGQSNNAYIFPGLGLGLVISGAVRVHEDMLLAASKALADQATQDNFEKGSIFPPFTSIRKISAHIAAAVAGKAYELGLATRLPPPSDLVKYAENCMYTPVYRNYR
notes: C4-NADP-malic enzyme (ZmC4-NADP-ME), plastidic C4 isoform of maize; source: E. coli Rosetta2 (DE3) or ArcticExpress (DE3), purified (Ni-NTA)
Take B1: the “stoichiometry N” value in data set [6] was 2 and 4.

B2: C4G200R mutant of maize C4-NADP-ME (enzyme, maize (Zea mays), UniProt P16243 63-636, looked up)
chain: MVSNAETETEKEQEEAAAASEELPVMPWATSVASGYTLLRDPHHNKGLAFTEEERDGHYLRGLLPPAVLSQELQIKKFMNTLRQYQTPLQRYIAMMNLQETDERLFYKLLIDNVVELLPFVYTPTVGEACQKYGSIFRRPQGLYVSLKDKGKVLEVLRNWPHRNIQVICVTDGERILGLGDLGCQGMGIPVGKLALYTALGGVDPSVCLPITIDVGTNNEFLLNDEFYIGLRQKRATGEEYDELIEEFMSAVKQFYGEKVLIQFEDFANHNAFDLLEKYSKSHLVFNDDIQGTASVVLAGLLAALKMVGGTLAEQTYLFLGAGEAGTGIAELIALEISKQTNAPIEECRKKVWLVDSKGLIVDSRKGSLQPFKKPWAHEHEPLKTLYDAVQSIKPTVLIGTSGVGRTFTKEIIEAMSSFNERPIIFSLSNPTSHSECTAEQAYTWSQGRSIFASGSPFAPVEYEGKTFVPGQSNNAYIFPGLGLGLVISGAVRVHEDMLLAASKALADQATQDNFEKGSIFPPFTSIRKISAHIAAAVAGKAYELGLATRLPPPSDLVKYAENCMYTPVYRNYR
notes: C4-NADP-malic enzyme (ZmC4-NADP-ME), plastidic C4 isoform of maize; also called C4-NADP-ME-G200R; source: E. coli Rosetta2 (DE3) or ArcticExpress (DE3), purified (Ni-NTA)
Take B2: the “stoichiometry N” value in data set [6] was found to be 2.

B3: C4D164N mutant of maize C4-NADP-ME (enzyme, maize (Zea mays), UniProt P16243 63-636, looked up)
chain: MVSNAETETEKEQEEAAAASEELPVMPWATSVASGYTLLRDPHHNKGLAFTEEERDGHYLRGLLPPAVLSQELQIKKFMNTLRQYQTPLQRYIAMMNLQETNERLFYKLLIDNVVELLPFVYTPTVGEACQKYGSIFGRPQGLYVSLKDKGKVLEVLRNWPHRNIQVICVTDGERILGLGDLGCQGMGIPVGKLALYTALGGVDPSVCLPITIDVGTNNEFLLNDEFYIGLRQKRATGEEYDELIEEFMSAVKQFYGEKVLIQFEDFANHNAFDLLEKYSKSHLVFNDDIQGTASVVLAGLLAALKMVGGTLAEQTYLFLGAGEAGTGIAELIALEISKQTNAPIEECRKKVWLVDSKGLIVDSRKGSLQPFKKPWAHEHEPLKTLYDAVQSIKPTVLIGTSGVGRTFTKEIIEAMSSFNERPIIFSLSNPTSHSECTAEQAYTWSQGRSIFASGSPFAPVEYEGKTFVPGQSNNAYIFPGLGLGLVISGAVRVHEDMLLAASKALADQATQDNFEKGSIFPPFTSIRKISAHIAAAVAGKAYELGLATRLPPPSDLVKYAENCMYTPVYRNYR
notes: as for B1
Consider B3, for which the “stoichiometry N” value in data set [6] was 2 and 4.

B4: C4Y632F mutant of maize C4-NADP-ME (enzyme, maize (Zea mays), UniProt P16243 63-636, looked up)
chain: MVSNAETETEKEQEEAAAASEELPVMPWATSVASGYTLLRDPHHNKGLAFTEEERDGHYLRGLLPPAVLSQELQIKKFMNTLRQYQTPLQRYIAMMNLQETDERLFYKLLIDNVVELLPFVYTPTVGEACQKYGSIFGRPQGLYVSLKDKGKVLEVLRNWPHRNIQVICVTDGERILGLGDLGCQGMGIPVGKLALYTALGGVDPSVCLPITIDVGTNNEFLLNDEFYIGLRQKRATGEEYDELIEEFMSAVKQFYGEKVLIQFEDFANHNAFDLLEKYSKSHLVFNDDIQGTASVVLAGLLAALKMVGGTLAEQTYLFLGAGEAGTGIAELIALEISKQTNAPIEECRKKVWLVDSKGLIVDSRKGSLQPFKKPWAHEHEPLKTLYDAVQSIKPTVLIGTSGVGRTFTKEIIEAMSSFNERPIIFSLSNPTSHSECTAEQAYTWSQGRSIFASGSPFAPVEYEGKTFVPGQSNNAYIFPGLGLGLVISGAVRVHEDMLLAASKALADQATQDNFEKGSIFPPFTSIRKISAHIAAAVAGKAYELGLATRLPPPSDLVKYAENCMYTPVFRNYR
notes: as for B1
As for B4, the binding result in data set [6] was “binds”.

B5: C4NnC4GR variant of maize C4-NADP-ME (enzyme)
chain: AAEMEQEEAEVAAAAAGVVVEDHYGEDSASEELPVMPWATSVASGYTLLRDPHHNKGLAFTEEERDGHYLRGLLPPAVLSQELQIKKFMNTLRQYQTPLQRYIAMMNLQETDERLFYKLLIDNVVELLPFVYTPTVGEACQKYGSIFRRPQGLYVSLKDKGKVLEVLRNWPHRNIQVICVTDGERILGLGDLGCQGMGIPVGKLALYTALGGVDPSVCLPITIDVGTNNEKLLNDEFYIGLRQKRATGEEYDELIEEFMSAVKQFYGEKVLIQFEDFANHNAFDLLEKYSKSHLVFNDDIQGTASVVLAGLLAALKMVGGTLAEQTYLFLGAGEAGTGIAELIALEISKQTNAPIEECRKKVWLVDSKGLIVDSRKGSLQPFKKPWAHEHEPLKTLYDAVQSIKPTVLIGTSGVGRTFTKEIIEAMSSFNERPIIFSLSNPTSHSECTAEQAYTWSQGRSIFASGSPFAPVEYEGKTFVPGQSNNAYIFPGLGLGLVISGAVRVHEDMLLAASKALADQATQDNFEKGSIFPPFTSIRKISAHIAAAVAAKAYELGLATRLPPPSDLVKYAENCMYTPVYRNYR
As for B5, in data set [6], the “stoichiometry N” value came out at 2.

B6: C4N15GR variant of maize C4-NADP-ME (enzyme)
chain: AAGVVVEDHYGEDSASEELPVMPWATSVASGYTLLRDPHHNKGLAFTEEERDGHYLRGLLPPAVLSQELQIKKFMNTLRQYQTPLQRYIAMMNLQETDERLFYKLLIDNVVELLPFVYTPTVGEACQKYGSIFRRPQGLYVSLKDKGKVLEVLRNWPHRNIQVICVTDGERILGLGDLGCQGMGIPVGKLALYTALGGVDPSVCLPITIDVGTNNEKLLNDEFYIGLRQKRATGEEYDELIEEFMSAVKQFYGEKVLIQFEDFANHNAFDLLEKYSKSHLVFNDDIQGTASVVLAGLLAALKMVGGTLAEQTYLFLGAGEAGTGIAELIALEISKQTNAPIEECRKKVWLVDSKGLIVDSRKGSLQPFKKPWAHEHEPLKTLYDAVQSIKPTVLIGTSGVGRTFTKEIIEAMSSFNERPIIFSLSNPTSHSECTAEQAYTWSQGRSIFASGSPFAPVEYEGKTFVPGQSNNAYIFPGLGLGLVISGAVRVHEDMLLAASKALADQATQDNFEKGSIFPPFTSIRKISAHIAAAVAAKAYELGLATRLPPPSDLVKYAENCMYTPVYRNYR
Regarding B6, the “stoichiometry N” value in data set [6] was 2.

B7: C4-NADP-ME (Zea mays) (protein)
chain: AMVSNAETETEKEQEEAAAASEELPVMPWATSVASGYTLLRDPHHNKGLAFTEEERDGHYLRGLLPPAVLSQELQIKKFMNTLRQYQTPLQRYIAMMNLQETDERLFYKLLIDNVVELLPFVYTPTVGEACQKYGSIFGRPQGLYVSLKDKGKVLEVLRNWPHRNIQVICVTDGERILGLGDLGCQGMGIPVGKLALYTALGGVDPSVCLPITIDVGTNNEFLLNDEFYIGLRQKRATGEEYDELIEEFMSAVKQFYGEKVLIQFEDFANHNAFDLLEKYSKSHLVFNDDIQGTASVVLAGLLAALKMVGGTLAEQTYLFLGAGEAGTGIAELIALEISKQTNAPIEECRKKVWLVDSKGLIVDSRKGSLQPFKKPWAHEHEPLKTLYDAVQSIKPTVLIGTSGVGRTFTKEIIEAMSSFNERPIIFSLSNPTSHSECTAEQAYTWSQGRSIFASGSPFAPVEYEGKTFVPGQSNNAYIFPGLGLGLVISGAVRVHEDMLLAASKALADQATQDNFEKGSIFPPFTSIRKISAHIAAAVAGKAYELGLATRLPPPSDLVKYAENCMYTPVYRNYR
notes: mature protein without transit peptide, E. coli, pET16b His-tag (Factor Xa site); homotetramer about 250 kDa
Take B7: in data set [7], the Km – broadly, the concentration of substrate that gives half-maximal velocity – amounted to 170 ± 20 µM and the kcat (commonly the maximal rate divided by the concentration of active sites) was 67.5 ± 1.4 s⁻¹.

B8: C4-NADP-ME (Zea mays; G200R) (protein)
chain: AMVSNAETETEKEQEEAAAASEELPVMPWATSVASGYTLLRDPHHNKGLAFTEEERDGHYLRGLLPPAVLSQELQIKKFMNTLRQYQTPLQRYIAMMNLQETDERLFYKLLIDNVVELLPFVYTPTVGEACQKYGSIFRRPQGLYVSLKDKGKVLEVLRNWPHRNIQVICVTDGERILGLGDLGCQGMGIPVGKLALYTALGGVDPSVCLPITIDVGTNNEFLLNDEFYIGLRQKRATGEEYDELIEEFMSAVKQFYGEKVLIQFEDFANHNAFDLLEKYSKSHLVFNDDIQGTASVVLAGLLAALKMVGGTLAEQTYLFLGAGEAGTGIAELIALEISKQTNAPIEECRKKVWLVDSKGLIVDSRKGSLQPFKKPWAHEHEPLKTLYDAVQSIKPTVLIGTSGVGRTFTKEIIEAMSSFNERPIIFSLSNPTSHSECTAEQAYTWSQGRSIFASGSPFAPVEYEGKTFVPGQSNNAYIFPGLGLGLVISGAVRVHEDMLLAASKALADQATQDNFEKGSIFPPFTSIRKISAHIAAAVAGKAYELGLATRLPPPSDLVKYAENCMYTPVYRNYR
notes: as for B7
Consider B8, for which, in data set [7], the Km came to 2450 ± 450 µM and the kcat was 21.6 ± 0.8 s⁻¹.
